For two substances, Kd and Ki results are on record in US20040248807A1.

One assay concerns the target Human γ-thrombin (human) (UniProt P00734). Description: fluorescence polarization, fluoresceinated peptide titrated with γ-thrombin. (In general: Fluorescence polarisation rises when a labelled molecule tumbles more slowly, as on binding a larger partner.)
The target in assay [1] is Human α-thrombin (human) (UniProt P00734). Briefly: fluorescence polarization, 2 nM fluoresceinated peptide titrated with α-thrombin.
Assay [2] has the same target. Briefly: fluorescence polarization competition against 2 nM fluoresceinated γ′408-427 phosphorylated peptide, 2 µM α-thrombin.

Chain of fluoresceinated γ′408-427 peptide, …-Y(PO3)-DSL-Y(PO3)-PEDDL (P02679 434-453): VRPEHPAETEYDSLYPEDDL

For the substance “fluoresceinated γ′408-427 peptide, …-Y(PO3)-DSL-Y(PO3)-PEDDL”, the Kd with Human γ-thrombin (human) was 610 nM; with Human α-thrombin (human) [1], 430 nM.

“γ′408-427 peptide, doubly phosphorylated, unlabeled, …-Y(PO3)-DSL-Y(PO3)-PEDDL”: the Ki with Human α-thrombin (human) [2] stood at 520 nM.

The term Kd denotes a measure of binding affinity in units of concentration. Broadly, the Ki is a measure of affinity in units of concentration, obtained from inhibition or displacement. High values mean a looser hold on the target, low ones a stronger hold on the target.
